The values that follow come from patent publication US20260250322A1, “NEW PEPTIDES AS SELECTIVE IL-23 RECEPTOR INHIBITORS” (SANOFI, priority 2023, published 2026).

Numbered stars: 1 amine (or outer) side, 2 acyl side, 3 side chain; on linkers, the order of the positions; unused ones are H or OH. Bridge positions count the residues as written; N and C are the ends. Square brackets hold non-standard residues; d marks the D form. Primed or numbered codes have the meaning given here. Phe(4-OMe) = Yme, 4-methoxy-L-phenylalanine (O-methyl-tyrosine), COc1ccc(C[C@H](N[*:1])C(=O)[*:2])cc1; Tyr(Me) = Yme = 4-methoxy-L-phenylalanine (O-methyl-tyrosine), COc1ccc(C[C@H](N[*:1])C(=O)[*:2])cc1; Tyr(Me)″ = O-methyl-tyrosine (4-methoxy-phenylalanine), COc1ccc(C[C@H](N[*:1])C(=O)[*:2])cc1; 1Nal = N[C@@H](Cc1cccc2ccccc12)C(=O)O; 2Nal = N[C@@H](Cc1ccc2ccccc2c1)C(=O)O; AEF = NCCOc1ccc(C[C@H](N)C(=O)O)cc1; Cit = NC(=O)NCCC[C@H](N)C(=O)O; Orn = NCCC[C@H](N)C(=O)O; Thp = NC1(C(=O)O)CCOCC1; Aib = CC(C)(N)C(=O)O

Assay [1] concerns the target T1, IL-23 receptor on the surface of HEK-Blue IL-23 cells (UniProt Q5VWK5 24-629, limits assumed).
T1 sequence (looked up): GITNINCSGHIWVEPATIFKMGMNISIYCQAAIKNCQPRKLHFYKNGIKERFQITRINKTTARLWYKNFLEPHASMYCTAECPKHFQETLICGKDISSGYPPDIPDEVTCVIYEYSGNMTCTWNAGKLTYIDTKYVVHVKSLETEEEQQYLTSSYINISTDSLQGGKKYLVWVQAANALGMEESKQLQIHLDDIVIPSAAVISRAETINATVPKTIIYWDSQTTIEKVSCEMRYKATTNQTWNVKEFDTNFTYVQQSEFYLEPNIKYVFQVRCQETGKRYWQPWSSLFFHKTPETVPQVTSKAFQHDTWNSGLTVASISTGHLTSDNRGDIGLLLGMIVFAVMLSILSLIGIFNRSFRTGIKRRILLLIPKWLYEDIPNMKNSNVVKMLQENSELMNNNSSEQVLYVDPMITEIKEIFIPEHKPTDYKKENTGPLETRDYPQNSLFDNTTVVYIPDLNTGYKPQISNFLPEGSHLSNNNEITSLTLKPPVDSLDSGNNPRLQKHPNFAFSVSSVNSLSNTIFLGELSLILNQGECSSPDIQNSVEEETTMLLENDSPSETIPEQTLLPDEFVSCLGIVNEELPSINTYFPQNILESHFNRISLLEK
The experiment in a line: cell-based or functional assay.

Assay [2] addresses T2, recombinant human IL-23R-Fc chimera (human, UniProt Q5VWK5 24-353, limits assumed).
T2 construct: Recombinant reagent; also called interleukin-23 receptor; not shown: detected with goat anti-hu-IgG1-HRP antibody
T2 sequence (looked up): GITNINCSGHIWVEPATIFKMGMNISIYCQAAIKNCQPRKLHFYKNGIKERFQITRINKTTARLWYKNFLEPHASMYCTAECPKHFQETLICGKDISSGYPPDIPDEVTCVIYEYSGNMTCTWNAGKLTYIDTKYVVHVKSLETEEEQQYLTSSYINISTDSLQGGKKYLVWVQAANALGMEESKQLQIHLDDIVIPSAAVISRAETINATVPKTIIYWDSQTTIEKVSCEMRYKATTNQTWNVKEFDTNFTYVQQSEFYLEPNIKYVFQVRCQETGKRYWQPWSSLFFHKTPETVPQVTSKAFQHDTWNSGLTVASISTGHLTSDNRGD
The experiment in a line: competition ELISA: coated human IL-23, IL-23R-Fc 0.1 ug/ml, peptide titrated. The procedure: Antagonism of peptide compounds for human interleukin-23 receptor inhibitors, was determined by an ELISA assay.
A 384-well plate was coated with 50 μl/well of human IL-23 at a final concentration of 1 μg/ml and incubated overnight at 4° C. The wells were washed 3 times with 80 μl wash buffer and blocked with 80 μl blocking buffer for 60 minutes at room temperature and washed again. 20 μl of serially diluted test peptides was added to each well and subsequently 20 μl of recombinant human IL-23R-Fc chimera at final concentration of 0.1 μg/ml. The plate was incubated for 60 minutes at room temperature. After the wells were washed, bound IL-23R-Fc was detected with goat anti-hu-lgG1-HRP antibody. Signals were visualized with QuantaBlu Fluorogenic Peroxidase Substrate.

B1: peptide compound SEQ ID NO: 16 (peptide)
peptide: Ac-[dK]NTWQR[Tyr(Me)][1Nal][Aib]ENN-NH2
modifications: lactam 1-10
SMILES: COc1ccc(C[C@@H]2NC(=O)[C@H](CCCNC(=N)N)NC(=O)[C@H](CCC(N)=O)NC(=O)[C@H](Cc3c[nH]c4ccccc34)NC(=O)[C@H]([C@@H](C)O)NC(=O)[C@H](CC(N)=O)NC(=O)[C@H](NC(C)=O)CCCCNC(=O)CC[C@@H](C(=O)N[C@@H](CC(N)=O)C(=O)N[C@@H](CC(N)=O)C(N)=O)NC(=O)C(C)(C)NC(=O)[C@H](Cc3cccc4ccccc34)NC2=O)cc1
A word on the IC50: it is the concentration that inhibits the measured activity by half. Take B1: in assay [1], the “Inhibition of IL-23 induced pSTAT3 (IC50 nM)” value (from here on “Inhibition”) is 8010 nM. Also, the IC50 in assay [2] came to 5.74 nM.

B2: peptide compound SEQ ID NO: 11 (peptide)
peptide: Ac-[dD]NTWQR[Tyr(Me)][1Nal][Aib]KNN-NH2
modifications: lactam 1-10
SMILES: COc1ccc(C[C@@H]2NC(=O)[C@H](CCCNC(=N)N)NC(=O)[C@H](CCC(N)=O)NC(=O)[C@H](Cc3c[nH]c4ccccc34)NC(=O)[C@H]([C@@H](C)O)NC(=O)[C@H](CC(N)=O)NC(=O)[C@H](NC(C)=O)CC(=O)NCCCC[C@@H](C(=O)N[C@@H](CC(N)=O)C(=O)N[C@@H](CC(N)=O)C(N)=O)NC(=O)C(C)(C)NC(=O)[C@H](Cc3cccc4ccccc34)NC2=O)cc1
Consider B2, for which the “Inhibition” value in assay [1] worked out at 9280 nM. For the same molecule, in assay [2], the IC50 was determined as 18.9 nM.

B3: peptide compound SEQ ID NO: 47 (peptide)
peptide: Ac-[dK]NTWQA[Tyr(Me)″][2Nal]RDNN-NH2
modifications: lactam 1-10
SMILES: COc1ccc(C[C@@H]2NC(=O)[C@H](C)NC(=O)[C@H](CCC(N)=O)NC(=O)[C@H](Cc3c[nH]c4ccccc34)NC(=O)[C@H]([C@@H](C)O)NC(=O)[C@H](CC(N)=O)NC(=O)[C@H](NC(C)=O)CCCCNC(=O)C[C@@H](C(=O)N[C@@H](CC(N)=O)C(=O)N[C@@H](CC(N)=O)C(N)=O)NC(=O)[C@H](CCCNC(=N)N)NC(=O)[C@H](Cc3ccc4ccccc4c3)NC2=O)cc1
notes: synthetic macrolactam
Consider B3, for which the IC50 in assay [2] amounted to 1.34 nM.

B4: peptide compound SEQ ID NO: 38 (peptide)
peptide: Ac-[Orn]NTWQR[AEF][2Nal][Aib]ENN-NH2
modifications: lactam 1-10
SMILES: CC(=O)N[C@H]1CCCNC(=O)CC[C@@H](C(=O)N[C@@H](CC(N)=O)C(=O)N[C@@H](CC(N)=O)C(N)=O)NC(=O)C(C)(C)NC(=O)[C@H](Cc2ccc3ccccc3c2)NC(=O)[C@H](Cc2ccc(OCCN)cc2)NC(=O)[C@H](CCCNC(=N)N)NC(=O)[C@H](CCC(N)=O)NC(=O)[C@H](Cc2c[nH]c3ccccc23)NC(=O)[C@H]([C@@H](C)O)NC(=O)[C@H](CC(N)=O)NC1=O
Take B4: the “Inhibition” value in assay [1] worked out at 1570 nM. Besides, in assay [2], the IC50 was found to be 12.5 nM.

B5: peptide compound SEQ ID NO: 28 (peptide)
peptide: Ac-[dK]NTWQR[Tyr(Me)″][2Nal]K(Ac)DNN-NH2
modifications: lactam 1-10
SMILES: COc1ccc(C[C@@H]2NC(=O)[C@H](CCCNC(=N)N)NC(=O)[C@H](CCC(N)=O)NC(=O)[C@H](Cc3c[nH]c4ccccc34)NC(=O)[C@H]([C@@H](C)O)NC(=O)[C@H](CC(N)=O)NC(=O)[C@H](NC(C)=O)CCCCNC(=O)C[C@@H](C(=O)N[C@@H](CC(N)=O)C(=O)N[C@@H](CC(N)=O)C(N)=O)NC(=O)[C@H](CCCCNC(C)=O)NC(=O)[C@H](Cc3ccc4ccccc4c3)NC2=O)cc1
notes: synthetic macrolactam
Take B5: the “Inhibition” value in assay [1] was 2210 nM. The IC50 in assay [2] worked out at 9.03 nM.

B6: peptide compound SEQ ID NO: 14 (peptide)
peptide: Ac-[dK]NTWQRY[1Nal][Aib]DNN-NH2
modifications: lactam 1-10
SMILES: CC(=O)N[C@@H]1CCCCNC(=O)C[C@@H](C(=O)N[C@@H](CC(N)=O)C(=O)N[C@@H](CC(N)=O)C(N)=O)NC(=O)C(C)(C)NC(=O)[C@H](Cc2cccc3ccccc23)NC(=O)[C@H](Cc2ccc(O)cc2)NC(=O)[C@H](CCCNC(=N)N)NC(=O)[C@H](CCC(N)=O)NC(=O)[C@H](Cc2c[nH]c3ccccc23)NC(=O)[C@H]([C@@H](C)O)NC(=O)[C@H](CC(N)=O)NC1=O
notes: synthetic macrolactam
Regarding B6, the “Inhibition” value in assay [1] was 1380 nM. For the same molecule, in assay [2], the IC50 amounted to 5.42 nM.

B7: peptide compound SEQ ID NO: 17 (peptide)
peptide: Ac-[dK]NTWQR[Tyr(Me)″][1Nal]K(Ac)DNN-NH2
modifications: lactam 1-10
SMILES: COc1ccc(C[C@@H]2NC(=O)[C@H](CCCNC(=N)N)NC(=O)[C@H](CCC(N)=O)NC(=O)[C@H](Cc3c[nH]c4ccccc34)NC(=O)[C@H]([C@@H](C)O)NC(=O)[C@H](CC(N)=O)NC(=O)[C@H](NC(C)=O)CCCCNC(=O)C[C@@H](C(=O)N[C@@H](CC(N)=O)C(=O)N[C@@H](CC(N)=O)C(N)=O)NC(=O)[C@H](CCCCNC(C)=O)NC(=O)[C@H](Cc3cccc4ccccc34)NC2=O)cc1
notes: synthetic macrolactam
In the case of B7, the “Inhibition” value in assay [1] came out at 5650 nM. The IC50 in assay [2] amounted to 7.87 nM.

B8: peptide compound SEQ ID NO: 19 (peptide)
peptide: Ac-[dK]NTWQR[Tyr(Me)″][1Nal]QDNN-NH2
modifications: lactam 1-10
SMILES: COc1ccc(C[C@@H]2NC(=O)[C@H](CCCNC(=N)N)NC(=O)[C@H](CCC(N)=O)NC(=O)[C@H](Cc3c[nH]c4ccccc34)NC(=O)[C@H]([C@@H](C)O)NC(=O)[C@H](CC(N)=O)NC(=O)[C@H](NC(C)=O)CCCCNC(=O)C[C@@H](C(=O)N[C@@H](CC(N)=O)C(=O)N[C@@H](CC(N)=O)C(N)=O)NC(=O)[C@H](CCC(N)=O)NC(=O)[C@H](Cc3cccc4ccccc34)NC2=O)cc1
notes: synthetic macrolactam
For B8, the “Inhibition” value in assay [1] is 9600 nM. The IC50 in assay [2] amounted to 15.6 nM.

B9: peptide compound SEQ ID NO: 30 (peptide)
peptide: Ac-[dK]NTWQR[Tyr(Me)″][2Nal]QDNN-NH2
modifications: lactam 1-10
SMILES: COc1ccc(C[C@@H]2NC(=O)[C@H](CCCNC(=N)N)NC(=O)[C@H](CCC(N)=O)NC(=O)[C@H](Cc3c[nH]c4ccccc34)NC(=O)[C@H]([C@@H](C)O)NC(=O)[C@H](CC(N)=O)NC(=O)[C@H](NC(C)=O)CCCCNC(=O)C[C@@H](C(=O)N[C@@H](CC(N)=O)C(=O)N[C@@H](CC(N)=O)C(N)=O)NC(=O)[C@H](CCC(N)=O)NC(=O)[C@H](Cc3ccc4ccccc4c3)NC2=O)cc1
notes: synthetic macrolactam
Regarding B9, the “Inhibition” value in assay [1] worked out at 6050 nM. Further, the IC50 in assay [2] was found to be 9.64 nM.

B10: peptide compound SEQ ID NO: 18 (peptide)
peptide: Ac-[dK]NTWQR[Tyr(Me)][1Nal][Cit]DNN-NH2
modifications: lactam 1-10
SMILES: COc1ccc(C[C@@H]2NC(=O)[C@H](CCCNC(=N)N)NC(=O)[C@H](CCC(N)=O)NC(=O)[C@H](Cc3c[nH]c4ccccc34)NC(=O)[C@H]([C@@H](C)O)NC(=O)[C@H](CC(N)=O)NC(=O)[C@H](NC(C)=O)CCCCNC(=O)C[C@@H](C(=O)N[C@@H](CC(N)=O)C(=O)N[C@@H](CC(N)=O)C(N)=O)NC(=O)[C@H](CCCNC(N)=O)NC(=O)[C@H](Cc3cccc4ccccc34)NC2=O)cc1
Consider B10, for which the “Inhibition” value in assay [1] came out at 10000 nM. Besides, the IC50 in assay [2] turned out to be 11.8 nM.

B11: peptide compound SEQ ID NO: 51 (peptide)
peptide: Ac-[dK]NTWQA[Phe(4-OMe)][2Nal][Thp]DNN-NH2
modifications: lactam 1-10
SMILES: COc1ccc(C[C@@H]2NC(=O)[C@H](C)NC(=O)[C@H](CCC(N)=O)NC(=O)[C@H](Cc3c[nH]c4ccccc34)NC(=O)[C@H]([C@@H](C)O)NC(=O)[C@H](CC(N)=O)NC(=O)[C@H](NC(C)=O)CCCCNC(=O)C[C@@H](C(=O)N[C@@H](CC(N)=O)C(=O)N[C@@H](CC(N)=O)C(N)=O)NC(=O)C3(CCOCC3)NC(=O)[C@H](Cc3ccc4ccccc4c3)NC2=O)cc1
Regarding B11, the IC50 in assay [2] was determined as 0.78 nM.

B12: peptide compound SEQ ID NO: 26 (peptide)
peptide: Ac-[dK]NTWQR[Tyr(Me)][2Nal][Aib]DN-NH2
modifications: lactam 1-10
SMILES: COc1ccc(C[C@@H]2NC(=O)[C@H](CCCNC(=N)N)NC(=O)[C@H](CCC(N)=O)NC(=O)[C@H](Cc3c[nH]c4ccccc34)NC(=O)[C@H]([C@@H](C)O)NC(=O)[C@H](CC(N)=O)NC(=O)[C@H](NC(C)=O)CCCCNC(=O)C[C@@H](C(=O)N[C@@H](CC(N)=O)C(N)=O)NC(=O)C(C)(C)NC(=O)[C@H](Cc3ccc4ccccc4c3)NC2=O)cc1
Consider B12, for which the “Inhibition” value in assay [1] was 8110 nM. The IC50 in assay [2] is 18.8 nM.
